From the Human Domainome abundance scans (Beltran et al. 2025)

B1: Transcription factor SOX-11, residues 50 to 117; numbered along this chain, P35716 (parent)
chain: KRPMNAFMVWSKIERRKIMEQSPDMHNAEISKRLGKRWKMLKDSEKIPFIREAERLRLKHMADYPDYK

Variants of: B1
Experiment: abundance fitness (aPCA) (normalised: wild type 0, dead -1); higher = more abundant; growth selection in yeast, the domain comes from the species named
Details: Homo sapiens

Abundance fitness of substitutions, site by site:
P48: F -0.285; N -0.598; C -0.634; V -0.261; A -0.664; H -0.355; R -0.604; G -0.384; L -0.572; D -0.656; I -0.43; Q -0.24; T -0.719; W -0.577; E -0.386; S -0.617; K -0.69
D43: Y -0.191
A53: F -0.64; T -0.649; D -0.961; V -0.749; S -0.506; N -0.474; H -0.741; W -0.91; E -0.622; C -0.728; M -0.33; Y -0.813; R -0.77; K -1.12; G -0.946; I -0.709; L -0.747; P -0.478
E52: M -0.396; A -0.462; K -0.577; S -0.785; C -0.515; P -0.982; R -0.735; N -0.793; D -0.438; W -0.605; Q -1.04; T -0.397; H -0.564; V -0.404; Y -0.598; I -0.278; F -0.546
I47: D -0.107; F -0.23; L 0.162; S -0.279; M 0.101; V -0.097; H -0.46; E 0.259; G -0.259; A 0.061; C -0.567; T -0.051; W -0.176; K -0.198; P -1.04; N -0.529
M61: W -0.221; A 0.144; I 0.011; F -0.292; R 0.033; H -0.086; P 0.008; C 0.107; N 0.116; Y -0.096; K -0.205; S 0.047; Q 0.077; T 0.058; E 0.046; G 0.07; V 0.048; D 0.09
P65: S 0.269; V -0.013; Y -0.41; R -0.495
I50: D -0.425; R -0.01; S -0.509; H -0.005; W -0.437; K -0.228; A -0.287; M 0.013; Q -0.007; G -0.555; C -0.59; L -0.161; E 0.248; N -0.323; P -0.617; F -0.034
L58: R -0.118; S -0.047; W -0.222; E -0.294; C -0.116; M -0.149; V -0.101; P -0.473; I -0.087; T -0.011; D 0.188; G -0.076; H 0.065; N 0.068; Y -0.195
D66: S -0.368; E 0.247; I -0.382; Q -0.115; R -0.38; G -0.027; C -0.278; Y -0.36; F -0.265; L -0.226; T -0.657; P -0.234; A -0.206; V -0.545; H -0.115
R57: N 0.414; A 0.023; L -0.335; Y -0.248; Q -0.057; I -0.384; C -0.186; D -0.137; W -0.114; T -0.023; K 0.137; P -0.426; V -0.373; E 0.283; G -0.167; M -0.068; F -0.432; H -0.126
K59: E 0.084; S -0.017; D -0.052; W -0.323; M 0.039; P -0.403; N 0.026; T 0.075; V 0.012; C -0.099; I -0.054; Y -0.192; H 0.106; F -0.166; L 0.12; A 0.087
S44: E 0.274; W -0.037; D 0.169; N -0.29; C -0.089; G -0.208; F -0.132; Q 0.585; R -0.24; M -0.362; P -0.752; T -0.215; Y -0.024; I 0.005; K -0.492; H -0.053
E54: Q -0.364; L -0.601; A -0.425; D -0.323; Y -0.335; H -0.641; P -0.925; G -0.714; V -0.671; M -0.833; W -0.576; C -0.42; K -0.826; T -0.7; N -0.241; F -0.762; I -0.751; R -0.74
F49: I -0.694; G -0.739; T -0.558; H -0.739; N -0.881; R -0.767; S -0.566; L -0.731; M -0.301; Y 0.048; E -0.792; A -0.761; V -0.635; W -0.256
D63: N 0.113
E45: H -0.45; T -0.942; N -0.439; M -0.314; I -0.336; S -0.828; F -0.297; W -0.447; K -0.667; R -0.891; V -0.425; C -0.548; G -1.04; P -0.918; L -0.221; Y -0.395; Q -0.282
K46: L -0.982; I -0.595; T -0.619; G -0.671; V -0.647; E -0.74; W -0.995; H -0.718; Y -0.968; C -0.848; F -0.987; P -0.844; M -0.85; S -0.996; A -0.871; D -0.777
R55: H -0.213; W -0.277; D -0.119; I -0.246; F -0.356; K -0.177; N -0.087; V -0.343; C -0.416; Y -0.43; S -0.146; P -0.868; G -0.313; M -0.521; E -0.017
L56: M 0.079; C -0.533; W -0.888; V -0.528; F -0.377; E -0.212; D -0.247; G -0.39; R -0.532; Y -0.386; Q -0.26; K -0.664; S -0.199; P -1.1; I -0.176; T -0.267; N -0.347
A62: N 0.111; H -0.251; C -0.062; I -0.182; L -0.123; M -0.181; Q 0.146; W -0.43; Y -0.163; S 0.116; R -0.225; G 0.079; D 0.092; V -0.139; K -0.085; F -0.2
H60: C -0.031; M -0.114; Q 0.222; L -0.273; I -0.178; D 0.136; R -0.227; F -0.078; G 0.142; P -0.142; V -0.047; E 0.406; S -0.017; Y -0.03; N 0.058; T 0.103; W -0.607
R51: P -0.473; Y -0.238; A -0.069; I -0.104; V -0.075; M 0.141; S -0.495; G -0.606; C -0.304; Q 0.189; F -0.411; L -0.125; D -0.129; T -0.29; K -0.054; H -0.289
